Measured values as given in publication PMC10641899, “Identification of HuR–RNA Interfering Compounds by Dynamic Combinatorial Chemistry and Fluorescence Polarization”.

Target: HuR RRM1+2 (RRM1/2) (UniProt Q15717 1-186)
Experiment: fluorescence polarization; 2.4 uM HuR RRM1/2, 45 nM RNA, 15% DMSO; complex 105 mP vs free RNA 35 mP; FP: PBS (20 mM sodium phosphate, 150 mM NaCl, 1 mM DTT, 0.05% Pluronic-127, 15% DMSO), 293 K; pH not stated
Settings: protein: recombinant; tags: N-terminal His6-TEV, tag cleaved and removed; label: 5'-FAM; single strand

HuR RRM1+2 (RRM1/2), sequence (Q15717 1-186): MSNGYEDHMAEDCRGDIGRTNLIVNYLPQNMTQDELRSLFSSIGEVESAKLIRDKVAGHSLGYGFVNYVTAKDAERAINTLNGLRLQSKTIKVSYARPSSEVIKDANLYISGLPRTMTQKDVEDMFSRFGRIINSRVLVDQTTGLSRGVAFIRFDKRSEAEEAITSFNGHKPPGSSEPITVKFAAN

UAUUUAUUUA (ssRNA) [5'-FAM ARE RNA probe]: binds.
